The values that follow come from paper PMC3029386, “Determinants Outside the DevR C-Terminal Domain Are Essential for Cooperativity and Robust Activation of Dormancy Genes in Mycobacterium tuberculosis”.

The target of data set [1] is DevRC (DevR C-terminal domain) (Mycobacterium tuberculosis H37Rv, UniProt P9WMF9 141-217). Briefly: EMSA. The settings on record: protein: recombinant; tags: N-terminal His6 (pET28a, pUS-DevRC); chain copies: 2. Background: Mobility shift assays separate free from complexed probe on a gel.
In a further data set the target is DevR (full-length) (Mycobacterium tuberculosis, UniProt P9WMF9 1-217). The data set can be described thus: EMSA. The settings on record: protein: recombinant; tags: N-terminal His6 (pAV-DevR); chain copies: 2.
Sequence of DevR (full-length) (P9WMF9 whole entry): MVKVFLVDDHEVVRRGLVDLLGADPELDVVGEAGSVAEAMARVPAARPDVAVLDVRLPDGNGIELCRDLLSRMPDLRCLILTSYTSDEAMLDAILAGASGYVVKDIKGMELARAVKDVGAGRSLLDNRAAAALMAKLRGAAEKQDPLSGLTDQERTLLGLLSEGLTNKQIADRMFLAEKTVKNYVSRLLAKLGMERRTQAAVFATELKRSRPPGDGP

Sequence of DevRC (DevR C-terminal domain) (P9WMF9 141-217): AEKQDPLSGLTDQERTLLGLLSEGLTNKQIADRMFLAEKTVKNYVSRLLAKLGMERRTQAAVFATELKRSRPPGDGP

B1: P+S box (LH1/LH2), tgs1-Rv3131 promoter (dsDNA)
DNA 1: CGAGTCGACAGAGCACGAAGGCTCGCCAGCGGAGGACCTTTGGCCCTGCGTCGACCGA
DNA 2: TCGGTCGACGCAGGGCCAAAGGTCCTCCGCTGGCGAGCCTTCGTGCTCTGGTCGACTCG
Take B1: the binding result (in data set [1]; with DevR (full-length)) was “binds” each time.
